Article PMC9482650, “Quantitative fragmentomics allow affinity mapping of interactomes” (Nature Communications, 2022)

T1: CARD11, Q9BXL7
T1 sequence (Q9BXL7 662-765, limits assumed, looked up): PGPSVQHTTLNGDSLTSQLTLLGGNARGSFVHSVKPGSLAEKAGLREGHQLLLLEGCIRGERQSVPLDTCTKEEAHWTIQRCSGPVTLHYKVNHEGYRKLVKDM

T2: DLG3_2, Q92796
T2 sequence (Q92796 221-321, limits assumed, looked up): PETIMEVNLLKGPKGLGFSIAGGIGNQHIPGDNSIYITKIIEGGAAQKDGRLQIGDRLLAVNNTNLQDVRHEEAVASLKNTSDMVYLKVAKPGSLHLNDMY

T3: DLG3_3, Q92796
T3 sequence (Q92796 374-475, limits assumed, looked up): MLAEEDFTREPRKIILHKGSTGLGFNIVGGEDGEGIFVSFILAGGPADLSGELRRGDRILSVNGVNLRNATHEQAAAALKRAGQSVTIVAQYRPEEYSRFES

T4: GRIP1_2, Q9Y3R0
T4 sequence (Q9Y3R0 145-248, limits assumed, looked up): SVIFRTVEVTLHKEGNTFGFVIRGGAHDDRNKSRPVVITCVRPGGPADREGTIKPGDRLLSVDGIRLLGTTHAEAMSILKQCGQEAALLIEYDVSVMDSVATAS

T5: LNX2_3, Q8N448
T5 sequence (Q8N448 463-564, limits assumed, looked up): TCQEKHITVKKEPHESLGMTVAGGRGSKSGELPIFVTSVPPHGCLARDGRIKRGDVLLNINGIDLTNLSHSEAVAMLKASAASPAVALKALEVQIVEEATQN

T6: MPP2, Q14168
T6 sequence (Q14168 180-250, limits assumed, looked up): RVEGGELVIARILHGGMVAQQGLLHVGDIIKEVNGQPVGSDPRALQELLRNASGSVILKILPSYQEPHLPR

T7: MPP6, Q9NZW5
T7 sequence (Q9NZW5 125-219, limits assumed, looked up): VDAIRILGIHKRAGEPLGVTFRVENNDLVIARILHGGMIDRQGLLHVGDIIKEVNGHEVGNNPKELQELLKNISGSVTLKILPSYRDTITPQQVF

T8: MPP7, Q5T2T1
T8 sequence (Q5T2T1 134-230, limits assumed, looked up): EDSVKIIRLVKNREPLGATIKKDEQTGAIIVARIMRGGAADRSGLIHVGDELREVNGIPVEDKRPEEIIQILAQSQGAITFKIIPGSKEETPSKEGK

T9: RHPN1, Q8TCX5
T9 sequence (Q8TCX5 508-602, limits assumed, looked up): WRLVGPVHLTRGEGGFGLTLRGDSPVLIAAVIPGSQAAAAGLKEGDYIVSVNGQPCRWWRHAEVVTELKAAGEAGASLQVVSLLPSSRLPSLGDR

T10: SIPA1L2, Q9P2F8
T10 sequence (Q9P2F8 945-1036, limits assumed, looked up): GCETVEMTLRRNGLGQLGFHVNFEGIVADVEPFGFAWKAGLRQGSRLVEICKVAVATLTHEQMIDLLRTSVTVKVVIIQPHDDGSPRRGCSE

T11: SNTG2, Q9NY99
T11 sequence (Q9NY99 68-166, limits assumed, looked up): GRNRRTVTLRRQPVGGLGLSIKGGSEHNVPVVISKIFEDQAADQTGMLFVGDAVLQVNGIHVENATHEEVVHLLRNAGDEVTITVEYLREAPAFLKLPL


Assays:
Experiment in all cases: holdup assay
Parameters in all cases: key: below the threshold = too weak to quantify, mostly under pKd 3.1 to 4
Details in all cases: plain residues with an end cap or a label only (N-terminal biotin on a linker: ado-ado)
ARHGEF12, Q9NZN5-2 = molecular target: ARHGEF12, Q9NZN5-2
Sequence of ARHGEF12, Q9NZN5-2 (Q9NZN5 other isoform, or with tags, fused parts or gaps): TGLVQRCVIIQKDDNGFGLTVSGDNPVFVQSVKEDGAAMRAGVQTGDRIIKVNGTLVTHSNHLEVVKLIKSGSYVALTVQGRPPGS

CARD11, Q9BXL7 = molecular target: T1, CARD11, Q9BXL7
DLG3_2, Q92796 = molecular target: T2, DLG3_2, Q92796
DLG3_3, Q92796 = molecular target: T3, DLG3_3, Q92796
FRMPD2_2, Q68DX3 = molecular target: FRMPD2_2, Q68DX3
Sequence of FRMPD2_2, Q68DX3 (Q68DX3 944-1038): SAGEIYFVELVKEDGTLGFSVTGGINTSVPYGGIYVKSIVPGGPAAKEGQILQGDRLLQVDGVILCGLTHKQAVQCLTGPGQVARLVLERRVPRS

GIPC2, Q8TF65 = molecular target: GIPC2, Q8TF65
Sequence of GIPC2, Q8TF65 (Q8TF65 112-203): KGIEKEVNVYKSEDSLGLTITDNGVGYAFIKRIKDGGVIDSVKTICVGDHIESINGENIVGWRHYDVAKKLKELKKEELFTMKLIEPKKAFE

GRIP1_2, Q9Y3R0 = molecular target: T4, GRIP1_2, Q9Y3R0
GRIP2_4, Q9C0E4 = molecular target: GRIP2_4, Q9C0E4
Sequence of GRIP2_4, Q9C0E4 (Q9C0E4 446-548): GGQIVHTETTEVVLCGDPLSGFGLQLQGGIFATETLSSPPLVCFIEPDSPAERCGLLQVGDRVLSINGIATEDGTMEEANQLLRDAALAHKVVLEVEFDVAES

GRIP2_5, Q9C0E4 = molecular target: GRIP2_5, Q9C0E4
Sequence of GRIP2_5, Q9C0E4 (Q9C0E4 544-642): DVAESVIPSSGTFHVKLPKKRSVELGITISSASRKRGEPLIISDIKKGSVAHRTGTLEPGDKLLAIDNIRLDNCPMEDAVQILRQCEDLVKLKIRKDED

GRIP2_7, Q9C0E4 = molecular target: GRIP2_7, Q9C0E4
Sequence of GRIP2_7, Q9C0E4 (Q9C0E4 934-1023): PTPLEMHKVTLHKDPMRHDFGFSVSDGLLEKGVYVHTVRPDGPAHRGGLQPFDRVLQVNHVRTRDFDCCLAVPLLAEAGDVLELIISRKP

IL16_4, Q14005 = molecular target: IL16_4, Q14005
Sequence of IL16_4, Q14005 (Q14005 1229-1329): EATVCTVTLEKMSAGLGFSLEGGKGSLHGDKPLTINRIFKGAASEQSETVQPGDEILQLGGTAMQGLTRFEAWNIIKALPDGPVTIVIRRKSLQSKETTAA

Inadl_4, Q8NI35 = molecular target: Inadl_4, Q8NI35
Sequence of Inadl_4, Q8NI35 (Q8NI35 547-651): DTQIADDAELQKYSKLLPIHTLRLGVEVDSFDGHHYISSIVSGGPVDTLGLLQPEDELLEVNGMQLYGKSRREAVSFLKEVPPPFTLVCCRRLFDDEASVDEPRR

LNX2_3, Q8N448 = molecular target: T5, LNX2_3, Q8N448
MPP2, Q14168 = molecular target: T6, MPP2, Q14168
MPP6, Q9NZW5 = molecular target: T7, MPP6, Q9NZW5
MPP7, Q5T2T1 = molecular target: T8, MPP7, Q5T2T1
NHERF4_1, Q86UT5-2 = molecular target: NHERF4_1, Q86UT5-2
Sequence of NHERF4_1, Q86UT5-2 (Q86UT5 other isoform, or with tags, fused parts or gaps): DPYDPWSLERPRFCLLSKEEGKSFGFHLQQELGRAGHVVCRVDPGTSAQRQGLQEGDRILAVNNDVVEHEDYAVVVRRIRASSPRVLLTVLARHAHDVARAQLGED

NOS1, P29475 = molecular target: NOS1, P29475
Sequence of NOS1, P29475 (P29475 9-101): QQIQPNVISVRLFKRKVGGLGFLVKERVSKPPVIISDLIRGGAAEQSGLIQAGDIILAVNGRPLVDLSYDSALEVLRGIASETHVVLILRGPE

PDLIM1, O00151 = molecular target: PDLIM1, O00151
Sequence of PDLIM1, O00151 (O00151 1-87): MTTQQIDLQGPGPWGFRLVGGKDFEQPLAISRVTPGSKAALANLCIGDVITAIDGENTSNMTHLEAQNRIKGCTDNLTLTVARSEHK

PTPN3, P26045 = molecular target: PTPN3, P26045
Sequence of PTPN3, P26045 (P26045 505-587): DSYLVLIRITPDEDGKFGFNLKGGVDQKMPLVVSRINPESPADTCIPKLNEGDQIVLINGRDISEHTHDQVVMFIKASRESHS

RHPN1, Q8TCX5 = molecular target: T9, RHPN1, Q8TCX5
SCRIB_1, Q14160 = molecular target: SCRIB_1, Q14160
Sequence of SCRIB_1, Q14160 (Q14160 718-814): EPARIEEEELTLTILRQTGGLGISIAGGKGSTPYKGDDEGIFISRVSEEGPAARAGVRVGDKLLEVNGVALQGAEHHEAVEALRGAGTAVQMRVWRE

SCRIB_3, Q14160 = molecular target: SCRIB_3, Q14160
Sequence of SCRIB_3, Q14160 (Q14160 999-1103): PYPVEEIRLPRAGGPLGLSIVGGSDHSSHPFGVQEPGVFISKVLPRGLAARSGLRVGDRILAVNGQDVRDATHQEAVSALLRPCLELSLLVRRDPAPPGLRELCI

SIPA1L2, Q9P2F8 = molecular target: T10, SIPA1L2, Q9P2F8
SNTG2, Q9NY99 = molecular target: T11, SNTG2, Q9NY99
TJP2_1, Q9UDY2 = molecular target: TJP2_1, Q9UDY2
Sequence of TJP2_1, Q9UDY2 (Q9UDY2 24-128): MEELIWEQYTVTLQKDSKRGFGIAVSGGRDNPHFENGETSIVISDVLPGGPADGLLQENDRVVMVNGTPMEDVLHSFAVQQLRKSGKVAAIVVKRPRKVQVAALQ

Binder	pKd (ARHGEF12, Q9NZN5-2)	pKd (CARD11, Q9BXL7)	pKd (DLG3_2, Q92796)	pKd (DLG3_3, Q92796)	pKd (FRMPD2_2, Q68DX3)	pKd (GIPC2, Q8TF65)	pKd (GRIP1_2, Q9Y3R0)	pKd (GRIP2_4, Q9C0E4)	pKd (GRIP2_5, Q9C0E4)	pKd (GRIP2_7, Q9C0E4)	pKd (IL16_4, Q14005)	pKd (Inadl_4, Q8NI35)	pKd (LNX2_3, Q8N448)	pKd (MPP2, Q14168)	pKd (MPP6, Q9NZW5)	pKd (MPP7, Q5T2T1)	pKd (NHERF4_1, Q86UT5-2)	pKd (NOS1, P29475)	pKd (PDLIM1, O00151)	pKd (PTPN3, P26045)	also measured
PDSNPEESSV [SEMA4C, Q9C0C4]	3.71	below the threshold	3.73	3.62	4.27	3.87	below the threshold	below the threshold	below the threshold	below the threshold	below the threshold	3.48	3.62	below the threshold	below the threshold	below the threshold	3.7	3.71	3.54	4.83	pKd (RHPN1, Q8TCX5): 4.7; pKd (SCRIB_1, Q14160): 4.15; pKd (SCRIB_3, Q14160): 4.45; pKd (SIPA1L2, Q9P2F8): below the threshold; pKd (SNTG2, Q9NY99): 4.04; pKd (TJP2_1, Q9UDY2): below the threshold
SSGSTSSSRI [ADGRG1, Q9Y653]	4.04	below the threshold	3.75	3.64	below the threshold	below the threshold	below the threshold	below the threshold	below the threshold	below the threshold	3.63	below the threshold	below the threshold	below the threshold	below the threshold	below the threshold	below the threshold	below the threshold	below the threshold	3.86	pKd (RHPN1, Q8TCX5): 3.93; pKd (SCRIB_1, Q14160): below the threshold; pKd (SCRIB_3, Q14160): below the threshold; pKd (SIPA1L2, Q9P2F8): below the threshold; pKd (SNTG2, Q9NY99): 3.68; pKd (TJP2_1, Q9UDY2): below the threshold
ASGLDKRDYV [CLDN9, O95484]	below the threshold	below the threshold	below the threshold	below the threshold	below the threshold	below the threshold	below the threshold	below the threshold	below the threshold	below the threshold	below the threshold	below the threshold	below the threshold	below the threshold	3.69	below the threshold	below the threshold	4.22	below the threshold	below the threshold	pKd (RHPN1, Q8TCX5): below the threshold; pKd (SCRIB_1, Q14160): below the threshold; pKd (SCRIB_3, Q14160): below the threshold; pKd (SIPA1L2, Q9P2F8): below the threshold; pKd (SNTG2, Q9NY99): below the threshold; pKd (TJP2_1, Q9UDY2): below the threshold
FTLPAESSEI [PLEKHG7, Q6ZR37]	4.18	below the threshold	4.19	below the threshold	below the threshold	below the threshold	below the threshold	below the threshold	below the threshold	below the threshold	below the threshold	below the threshold	below the threshold	below the threshold	below the threshold	below the threshold	below the threshold	below the threshold	below the threshold	3.55	pKd (RHPN1, Q8TCX5): 4.68; pKd (SCRIB_1, Q14160): below the threshold; pKd (SCRIB_3, Q14160): 3.86; pKd (SIPA1L2, Q9P2F8): below the threshold; pKd (SNTG2, Q9NY99): below the threshold; pKd (TJP2_1, Q9UDY2): below the threshold

Further lines, with some results ahead:

pKd (ARHGEF12, Q9NZN5-2)	pKd (CARD11, Q9BXL7)	pKd (DLG3_2, Q92796)	pKd (DLG3_3, Q92796)	pKd (FRMPD2_2, Q68DX3)	pKd (GIPC2, Q8TF65)	pKd (GRIP1_2, Q9Y3R0)	pKd (GRIP2_4, Q9C0E4)	pKd (GRIP2_5, Q9C0E4)	pKd (GRIP2_7, Q9C0E4)	pKd (IL16_4, Q14005)	pKd (Inadl_4, Q8NI35)	pKd (LNX2_3, Q8N448)	pKd (MPP2, Q14168)	pKd (MPP6, Q9NZW5)	pKd (MPP7, Q5T2T1)	pKd (NHERF4_1, Q86UT5-2)	pKd (NOS1, P29475)	pKd (PDLIM1, O00151)	pKd (PTPN3, P26045)	Binder	also measured
3.68	below the threshold	below the threshold	3.9	3.52	3.52	below the threshold	below the threshold	below the threshold	below the threshold	below the threshold	below the threshold	below the threshold	below the threshold	below the threshold	below the threshold	below the threshold	below the threshold	below the threshold	4.12	EWTDERQSKV [GAB3, Q8WWW8]	pKd (RHPN1, Q8TCX5): 4.2; pKd (SCRIB_1, Q14160): below the threshold; pKd (SCRIB_3, Q14160): below the threshold; pKd (SIPA1L2, Q9P2F8): below the threshold; pKd (SNTG2, Q9NY99): 3.88; pKd (TJP2_1, Q9UDY2): below the threshold
4.36	below the threshold	below the threshold	below the threshold	below the threshold	3.49	below the threshold	below the threshold	below the threshold	below the threshold	below the threshold	below the threshold	below the threshold	below the threshold	3.74	below the threshold	3.9	3.52	below the threshold	4.78	NPETRDETQL [KCNT1, Q5JUK3]	pKd (RHPN1, Q8TCX5): 4.43; pKd (SCRIB_1, Q14160): 4.46; pKd (SCRIB_3, Q14160): 4.84; pKd (SIPA1L2, Q9P2F8): below the threshold; pKd (SNTG2, Q9NY99): 4.08; pKd (TJP2_1, Q9UDY2): below the threshold
